These results are taken from US20220348923, “CA-IX APTAMERS AND DIAGNOSTIC AND THERAPEUTIC USES THEREOF” (BRACCO IMAGING S.P.A., published 2022).

The data set concerns the target Carbonic Anhydrase IX (CA-IX) (Homo sapiens, UniProt Q16790 Q16790:38-414). As to the kind of experiment: RT-qPCR cell binding, 100 nM, 15 min, 37 C, acid condition.

B1: SAM-2.T1 (ssRNA)
RNA: UCGAAUGAACCAAGGUUCCUCGGC
modifications: 2'-F pyrimidines
The molecule B1 returned a binding signal of 2.4 fold over COS7-WT.

B2: SAM-1.T1 (ssRNA)
RNA: UUCGUGCCGCUGAGUGCGUACGGGC
modifications: 2'-F pyrimidines
On to B2, for which the binding signal was determined as 1.3 fold over COS7-WT.
